{"source": "patent US11827911B2", "about": "“Chimeric bacteriophage lysin with activity against Staphylococci bacteria” (priority 2008, dated 2023)", "key": {"[1]": {"assay": "Solubility of expressed lysins and chimeras", "protocol": "In another embodiment, the lysin is a chimeric protein that comprises an endopeptidase domain of the S. aureus Twort lysin upstream of the phiNM3 CWT domain (SEQ ID NO:1). The chimeric polypeptide is preferably sufficiently soluble in phosphate buffered saline (PBS). Preferred levels of solubility in PBS for the chimeric lysins is at least about 1 mg/ml and more preferably at least about 3 mg/mL. in PBS. […] One example of such a lysin is provided in SEQ ID NO:2 (AD127), shown in FIG. 5A and consisting of the Twort lysin endopeptidase domain attached to the phiNM3 CWT domain (SEQ ID NO:1). The isolated polypeptide of SEQ ID NO:2 (AD 127) was constructed by engineering S. epidermidis autolysin amidase and Twort lysin endopeptidase domains upstream of phiNM3 CWT domain, respectively.\nTraditionally, Bacillus-specific lysins are expressed at high levels and are soluble in E. coli. Therefore, our first attempt was to engineer a 16-amino acid peptide (4) that is conserved in several S. aureus-specific lysins (Lu J Z, Fujiwara T, Komatsuzawa H, Sugai M, Sakon J. 2006. Cell wall-targeting domain of glycylglycine endopeptidase distinguishes among peptidoglycan cross-bridges. (Lue et al. (2006) J. Biol. Chem. 281(1):549-58) The catalytic domain of the Bacillus-specific lysin PlyB was used to generate chimera AD 103 (FIG. 4) (SEQ ID NO: 13). The chimeras were tested for expression, solubility and activity. Then the entire C-terminal CWT domain of PlyB (6) was replaced by the putative C-terminal domain of S. aureus phage Twort lysin (8) to obtain AD 105 (SEQ ID NO: 14). […] Since the lysostaphin catalytic domain […] (10) in AD 112 was of bacterial origin, we attempted to engineer a phage-derived catalytic domain upstream of the lysostaphin CWT. For this, the endopeptidase domain in Twort lysin (14) was used to construct chimera AD 119 (SEQ ID NO:3)."}, "S. aureus": {"tested_on": "S. aureus", "assay": "Lytic assays of chimeric lysins against S. aureus", "format": "cell-based, Staphylococcus aureus", "conditions": "for lytic/killing activity against S. aureus: qualitative", "source_text": "For this, the endopeptidase domain in Twort lysin (14) was used to construct chimera AD 119 (SEQ ID NO:3). […] To overcome low expression of AD 127 construct, the entire chimera gene was cloned into expression vector pJML6 to generate pAD 138."}, "S. aureus 8325-4 cells [2]": {"tested_on": "S. aureus 8325-4 cells", "assay": "Spectrophotometric loss of turbidity (OD600) lytic assay", "format": "cell-based, Staphylococcus aureus", "protocol": "(§1) The unit activity of ClyS was defined by measuring the spectrophotometric loss of turbidity, indicative of cell lysis, of S. aureus 8325-4 cells upon adding serial dilutions of ClyS. In our assays, 5 micrograms of ClyS corresponded to 1 U of lytic activity. When 50 U of ClyS was added to exponentially growing 8325-4 cells the OD600 dropped to baseline within 5 min (FIG. 7). To confirm that the observed cell lysis corresponds to cell death, staphylococcal viability was determined by enumerating aliquots from the lytic reaction at various time points.\nClyS activity was measured as previously described (Daniel et al, 2001), with some modifications. Briefly, S. aureus strain 8325-4 was grown to an OD600 of 0.25-0.3, centrifuged, and resuspended in PB to a final OD600 of 0.8-1.0. Two-fold serial dilutions of purified ClyS […] were added to 100 μl of bacterial suspension in 96-well plates (Costar) and the decrease in OD600 was monitored by a Spectramax Plus 384 spectrophotometer (Molecular Devices) over 30 min at 37° C. ClyS activity in units per milliliter was defined as the reciprocal of the highest dilution of lysin that decreased the absorbance by 50% in 15 minutes."}, "S. aureus strain 8325-4": {"tested_on": "S. aureus strain 8325-4", "assay": "Viability assay (colony-forming units)", "format": "cell-based, Staphylococcus aureus", "conditions": "50 U of ClyS, in 30 min", "protocol": "as §1\n(§2) The viability assay of ClyS was tested as previously described (Nelson et al, 2001). Briefly, log phase cultures of S. aureus strain 8325-4 were resuspended in PB to OD600 of 0.8-1.0. 50 U of ClyS or the corresponding volume of PB was added to bacterial cells and aliquots were removed, serially diluted, and plated at 1, 5, 10, 30, and 60 minutes to assess the viability of the treated and control cells. All experiments were performed in triplicate. The activity of ClyS on various bacterial strains was tested as described previously (Schuch et al, 2002). Briefly, log phase bacterial cells were treated with 50 U of ClyS at 37° C. for 15 minutes. The samples were serially diluted and plated. Control experiments with the addition of phosphate buffer (pH 7.0) were performed under the same conditions."}, "[3]": {"tested_on": "S. aureus strains (MSSA and MRSA)", "assay": "Muralytic activity on bacterial strains, Set I", "format": "cell-based, Staphylococcus aureus", "conditions": "50 U of ClyS, 15 minutes", "protocol": "Muralytic activity of ClyS was tested on a number of bacterial strains representing a variety of species which were divided into sets (Table 1 and FIG. 10). Set I consisted of S. aureus strains including methicillin-sensitive S. aureus (MSSA) and MRSA. ClyS was active against MSSA and MRSA although differences were observed between S. aureus strains. Set II consisted of different species of staphylococci including S. epidermidis, S. simulans and S. sciuri. […] Set III consisted of a mix of Gram-positive and Gram-negative bacteria including representatives of group A, B, C and E streptococci, oral streptococcal species including S. gordonli, and S. salivarius, as well as S. uberis, Bacillus cereus, Pseudomonas aeruginosa and E. coli.\nas §2, with “The samples were serially diluted and plated. Control experiments with the addition of phosphate buffer (pH 7.0) were performed under the same conditions.” left out"}, "S. aureus 8325-4 cells [4]": {"tested_on": "S. aureus 8325-4 cells", "assay": "Transmission electron microscopy of the lytic effect", "format": "cell-based, Staphylococcus aureus", "conditions": "50 U of ClyS for 1-3 min", "protocol": "However, unlike other lysins, the sites of degradation on the cell was not restricted to the septal or polar positions but was randomly distributed.\nS. aureus strain 8325-4 was grown to log-phase, centrifuged and resuspended in PBS to an absorbance at 600 nm of 1.0. The bacterial suspension was incubated with 50 U of ClyS at room temperature. […] The suspension was pelleted by centrifugation and overlaid with 2.5% glutaraldehyde in 0.1 M cacodylate buffer (pH 7.4). The samples were then postfixed in 1% osmium tetroxide, block stained with uranyl acetate and processed according to standard procedures by The Rockefeller University Electron Microscopy Service."}, "MRSA strain COL": {"tested_on": "MRSA strain COL", "assay": "Checkerboard broth-microdilution assay", "format": "cell-based, Staphylococcus aureus", "text": "(§3) We used the checkerboard broth-microdilution assay to test the interaction of ClyS with vancomycin and with oxacillin. […] Isobolograms for ClyS with vancomycin and ClyS with oxacillin was plotted by transcribing the enzyme concentrations along the inhibitory line on the microtiter plate in an x/y plot."}, "VISA strain Mu50": {"tested_on": "VISA strain Mu50", "assay": "Checkerboard broth-microdilution assay", "format": "cell-based, Staphylococcus aureus", "conditions": "VISA strain Mu50", "text": "as §3"}}}
{"molecule": "ClyS: chimeric lysin: Twort lysin endopeptidase domain attached to the phiNM3 CWT domain, 280 amino acid residues (protein, Chimeric of Staphylococcus aureus bacteriophage Twort domain and Staphylococcus aureus phage phiNM3 CWT domain, chimeric lysin: Twort lysin endopeptidase domain attached to the phiNM3 CWT domain, 280 amino acid residues) METLKQAESYIKSKVNTGTDFDGLYGYQCMDLAVDYIYHVTDGKIRMWGNAKDAINNSFGGTATVYKNYPAFRPKYGDVVVWTTGNFATYGHIAIVTNPDPYGDLQYVTVLEQNWNGNGIYKTELATIRTHDYTGITHFIRPNFATESSVKKKDTKKKPKPSNRDGLNKDKIVYDRTNINYNMVLQGKSASKITVGSKAPYNLKWSKGAYFNAKIDGLGATSATRYGDNRTNYRFDVGQAVYAPGTLIYVFEIIDGWCRIYWNNHNEWIWHERLIVKEVF", "values": [{"measurement": "solubility", "setting": "[1]", "result": "very high"}, {"measurement": "activity", "setting": "S. aureus; AD 127 from the pAD138 construct", "result": "very high"}, {"measurement": "lytic/killing activity against S. aureus", "setting": "S. aureus; listed as AD 127", "result": "very high activity"}, {"measurement": "lytic/killing activity against S. aureus", "setting": "S. aureus; listed as AD127", "result": "little or no killing activity"}, {"measurement": "time for OD600 to drop to baseline", "setting": "S. aureus 8325-4 cells [2]; 50 U of ClyS, exponentially growing 8325-4 cells", "result": "≤ 5", "unit": "min"}, {"measurement": "amount corresponding to 1 U of lytic activity", "setting": "S. aureus 8325-4 cells [2]; unit = reciprocal of highest dilution that decreased absorbance by 50% in 15 minutes", "result": 5, "unit": "micrograms"}, {"measurement": "decrease in viability", "setting": "S. aureus strain 8325-4", "result": "approximately 3 logs"}, {"measurement": "muralytic activity against MRSA", "setting": "[3]", "result": "active"}, {"measurement": "muralytic activity against MSSA", "setting": "[3]", "result": "active"}, {"measurement": "lytic effect seen by transmission electron microscopy", "setting": "S. aureus 8325-4 cells [4]", "result": "localized degradation of the cell wall"}, {"measurement": "MIC", "setting": "MRSA strain COL", "result": 8, "unit": "U/ml"}, {"measurement": "MIC", "setting": "VISA strain Mu50", "result": 6, "unit": "U/ml"}]}
